Laboratory results taken from PMC6900781.

Key:
Settings in all cases: remark: other sources report otherwise
[1] = biological target: T1, GFP-LacI-dCENP-C (Drosophila melanogaster), Q9VHP9; assay: LacI/LacO tethering and recruitment assay (immunofluorescence); as a1, but with a third Drosophila centromere protein (CAL1-V5, dCENP-A-HA or -V5, or HA-dCENP-C) co-expressed, as named in the row
T1 chain: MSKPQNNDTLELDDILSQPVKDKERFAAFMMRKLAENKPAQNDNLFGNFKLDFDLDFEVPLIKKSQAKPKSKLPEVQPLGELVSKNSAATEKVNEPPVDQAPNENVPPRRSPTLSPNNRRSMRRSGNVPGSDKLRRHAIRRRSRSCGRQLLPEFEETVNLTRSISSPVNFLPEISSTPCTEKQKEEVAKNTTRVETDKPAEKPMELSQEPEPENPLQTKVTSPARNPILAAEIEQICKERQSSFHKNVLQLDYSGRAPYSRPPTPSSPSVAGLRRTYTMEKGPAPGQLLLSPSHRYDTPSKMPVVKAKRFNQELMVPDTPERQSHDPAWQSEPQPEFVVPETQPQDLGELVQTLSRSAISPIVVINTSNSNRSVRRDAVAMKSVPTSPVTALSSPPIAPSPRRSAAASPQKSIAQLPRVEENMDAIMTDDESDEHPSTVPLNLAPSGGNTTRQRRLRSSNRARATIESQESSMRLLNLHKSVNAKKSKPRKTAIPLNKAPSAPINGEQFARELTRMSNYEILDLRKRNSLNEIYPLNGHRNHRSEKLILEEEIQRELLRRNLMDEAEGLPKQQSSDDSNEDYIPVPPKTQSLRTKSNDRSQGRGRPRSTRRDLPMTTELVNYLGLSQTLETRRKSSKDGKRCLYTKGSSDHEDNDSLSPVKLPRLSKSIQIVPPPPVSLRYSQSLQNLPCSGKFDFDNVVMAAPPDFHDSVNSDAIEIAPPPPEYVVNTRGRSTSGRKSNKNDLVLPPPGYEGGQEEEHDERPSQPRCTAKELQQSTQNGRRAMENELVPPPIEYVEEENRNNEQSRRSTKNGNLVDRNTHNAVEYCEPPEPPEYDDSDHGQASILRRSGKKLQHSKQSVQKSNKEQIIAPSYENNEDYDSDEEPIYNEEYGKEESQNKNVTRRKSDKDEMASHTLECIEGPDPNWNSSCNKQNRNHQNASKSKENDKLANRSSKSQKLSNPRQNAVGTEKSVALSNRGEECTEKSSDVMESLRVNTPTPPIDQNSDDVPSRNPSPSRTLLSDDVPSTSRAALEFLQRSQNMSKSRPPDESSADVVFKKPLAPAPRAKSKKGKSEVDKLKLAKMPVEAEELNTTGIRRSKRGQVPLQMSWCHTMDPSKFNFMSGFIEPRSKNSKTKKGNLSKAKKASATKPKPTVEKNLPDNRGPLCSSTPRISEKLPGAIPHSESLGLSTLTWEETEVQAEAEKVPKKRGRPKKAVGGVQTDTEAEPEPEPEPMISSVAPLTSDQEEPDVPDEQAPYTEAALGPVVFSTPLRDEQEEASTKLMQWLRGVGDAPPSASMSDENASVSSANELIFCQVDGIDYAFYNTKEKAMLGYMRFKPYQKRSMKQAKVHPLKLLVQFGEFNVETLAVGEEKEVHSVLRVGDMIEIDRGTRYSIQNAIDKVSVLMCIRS

[2] = biological target: T1, GFP-LacI-dCENP-C (Drosophila …); assay: LacI/LacO tethering and recruitment assay (immunofluorescence); bait fused to GFP-LacI tethered to chromosomal LacO arrays in human U2OS cells; HA- or V5-tagged prey transiently co-expressed; IF 48 h after transfection, prey intensity at the LacO spot or % of cells; no third Drosophila centromere protein co-expressed
[3] = biological target: T2, dCENP-A-GFP-LacI (Drosophila melanogaster), Q9V6Q2; assay: LacI/LacO tethering and recruitment assay (immunofluorescence); as a1, but with a third Drosophila centromere protein (CAL1-V5, dCENP-A-HA or -V5, or HA-dCENP-C) co-expressed, as named in the row
T2 chain: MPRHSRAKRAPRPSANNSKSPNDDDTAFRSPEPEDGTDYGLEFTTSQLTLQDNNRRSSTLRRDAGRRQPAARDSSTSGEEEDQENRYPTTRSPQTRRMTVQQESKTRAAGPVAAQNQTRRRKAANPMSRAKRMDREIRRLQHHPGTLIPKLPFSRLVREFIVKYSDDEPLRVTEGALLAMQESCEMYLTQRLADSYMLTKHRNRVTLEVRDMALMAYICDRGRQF

[4] = biological target: T2, dCENP-A-GFP-LacI (Drosophila …); assay: LacI/LacO tethering and recruitment assay (immunofluorescence); bait fused to GFP-LacI tethered to chromosomal LacO arrays in human U2OS cells; HA- or V5-tagged prey transiently co-expressed; IF 48 h after transfection, prey intensity at the LacO spot or % of cells; no third Drosophila centromere protein co-expressed
[5] = biological target: (dCENP-A/dH4) dimer (Drosophila melanogaster), Q9V6Q2; assay: SEC-MALS; recombinant proteins; Superdex 200 10/300 Increase GL, 50 mM HEPES pH 8.0, 150 or 300 mM NaCl, 1 mM TCEP, 22°C, 100 μl of 1-5 mg/ml

B1: dCENP-A-HA, Q9V6Q2 1-225 (natural protein)
chain: T2 chain
% of cells with localization at LacO (with CAL1-V5) [1]: 73 % cells
% of cells with localization at LacO (without CAL1) [2]: 43 % cells

B2: HA-dCENP-C, Q9VHP9 1-1411 (natural protein)
chain: T1 chain
% of cells with recruitment at LacO (with CAL1-V5) [3]: 55 % cells
% of cells with recruitment at LacO (without CAL1-V5) [4]: 17 % cells

B3: recombinant CAL1(1-160), Q9VEN2 1-160 (domain or fragment)
chain: MANAVVDEETLEAMVYERSKAWSSKMADFASLEDGMEIDVAEFDNLFHGEDEDPDLDDVAKEAVEDNVPDEAKLEMGHINATSVTELTLILCANEDNEAKAEIEEILNQTVPVVEEHKRKWREAGLDRILDTFDEKQIEHHVGRWMRRHNSVYLEASPPK
stoichiometry N ((dCENP-A/dH4) dimer per CAL1(1-160)) [5]: 1
